Earlier results, collected in paper PMC3082853.
pKd: −log10 of the molar value.

Molecular target: FepA (Escherichia coli) (UniProt P05825)
UniProt P05825, sequence (P05825 23-746): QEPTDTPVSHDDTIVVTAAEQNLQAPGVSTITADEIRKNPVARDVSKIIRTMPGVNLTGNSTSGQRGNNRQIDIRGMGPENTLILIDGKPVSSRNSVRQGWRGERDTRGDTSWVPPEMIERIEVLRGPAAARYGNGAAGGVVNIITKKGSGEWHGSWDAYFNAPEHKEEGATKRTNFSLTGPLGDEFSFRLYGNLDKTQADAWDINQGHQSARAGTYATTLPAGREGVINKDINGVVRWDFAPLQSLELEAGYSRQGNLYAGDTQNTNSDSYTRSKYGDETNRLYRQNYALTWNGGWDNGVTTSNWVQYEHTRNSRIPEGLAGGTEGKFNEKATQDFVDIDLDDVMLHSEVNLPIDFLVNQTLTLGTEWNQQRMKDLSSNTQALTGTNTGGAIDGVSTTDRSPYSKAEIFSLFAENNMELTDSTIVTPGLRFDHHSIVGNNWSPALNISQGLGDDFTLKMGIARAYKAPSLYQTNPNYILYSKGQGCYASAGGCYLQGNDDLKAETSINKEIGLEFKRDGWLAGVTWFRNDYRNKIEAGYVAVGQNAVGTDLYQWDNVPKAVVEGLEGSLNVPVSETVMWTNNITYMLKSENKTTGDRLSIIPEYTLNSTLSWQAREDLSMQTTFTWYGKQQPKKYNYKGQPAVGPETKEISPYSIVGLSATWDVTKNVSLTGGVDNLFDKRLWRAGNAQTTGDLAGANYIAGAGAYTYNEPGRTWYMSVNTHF

colicin B (from UniProt P05819)
pKd: 6.73
